In patent US20180224449A1 (GOVERNMENT OF THE UNITED STATES AS REPRESENTED BY THE …, published 2018):
Ends that are not written are not given here. * marks the point of attachment. Biotin = O=C1N[C@H]2[C@H](CS[C@H]2CCCCC(=O)*)N1

T1: biotinylated OprF1 synthetic peptide (P. aeruginosa)
T1 construct: also called OprF1-B; OprF1-Biotin
T1 peptide: Biotin-GTYETGNKKVH

B1: OBP11 peptide-quantum dot conjugate (peptide)
peptide: PIKTNRK
modifications: also: conjugated to quantum dot
notes: The summary and claims describe a C-terminal three-glycine plus cysteine linker to an amine-functionalized quantum dot; also called QD545-OBP11; OBP11-QD545
B2: OBP12 peptide-quantum dot conjugate (peptide)
peptide: PKRTPRH
modifications: also: conjugated to quantum dot
notes: The summary and claims describe a C-terminal three-glycine plus cysteine linker to an amine-functionalized quantum dot; also called QD545-OBP12; OBP12-QD545
B3: monoclonal M13 phage displaying OBP6 (NMTNPPP) (peptide)
chain: NMTNPPP
notes: also called OprF-specific bacteriophage; not shown: P3 coat protein of M13 bacteriophage (Ph.D.-7 library)
B4: monoclonal M13 phage displaying OBP9 (QMLLRLP) (peptide)
chain: QMLLRLP
notes: as for B3
B5: monoclonal M13 phage displaying OBP7 (QITLRST) (peptide)
chain: QITLRST
notes: as for B3
B6: monoclonal M13 phage displaying OBP11 (PIKTNRK) (peptide)
chain: PIKTNRK
notes: as for B3
B7: monoclonal M13 phage displaying OBP4 (RRSNSQL) (peptide)
chain: RRSNSQL
notes: as for B3
B8: monoclonal M13 phage displaying OBP12 (PKRTPRH) (peptide)
chain: PKRTPRH
notes: as for B3

Target: T2, OprF outer membrane protein on A. venetianus cells (A. venetianus)
T2 construct: whole, on cells; Whole bacterial cells were labeled
Assay: fluorometry of cells recovered from spiked 1 L Jet A fuel and labeled with 1.5 uM peptide-QD545, at the LOD of 5 x 10^5 CFU

| Binder | FLUORESCENCE (RFU) |
| --- | --- |
| B1 | 292 RFU |
| B2 | 580 RFU |

Target: T3, OprF outer membrane protein on P. stutzeri cells (P. stutzeri)
T3 construct: whole, on cells; whole bacterial cells were labeled
Assay: as above

| Binder | FLUORESCENCE (RFU) |
| --- | --- |
| B1 | 255 RFU |
| B2 | 12200 RFU |

Target: T1, biotinylated OprF1 synthetic peptide
Assay: pooled monoclonal phages pulled down on biotinylated OprF1 in Bushnell-Haas with 1% Jet-A; unamplified eluate, share of 30 sequenced clones

| Binder | % Abundance |
| --- | --- |
| B3 | 10% |
| B4 | 3% |
| B5 | 10% |
| B6 | 10% |
| B7 | 33% |
| B8 | 3% |
